In one data set the target is NF-kB p50 homodimer (UniProt P19838). To be noted: quoted in comparison with XBY-6.
Data set [1] concerns the target NF-kB p65 (RelA) homodimer (UniProt Q04206). Nature of the data set: EMSA. To be noted: 1:1 stoichiometry of p65 to the 22-mer site. Background: A gel shift assay detects complexes by their altered migration in electrophoresis.

NF-kB p50 homodimer, sequence (P19838 1-433): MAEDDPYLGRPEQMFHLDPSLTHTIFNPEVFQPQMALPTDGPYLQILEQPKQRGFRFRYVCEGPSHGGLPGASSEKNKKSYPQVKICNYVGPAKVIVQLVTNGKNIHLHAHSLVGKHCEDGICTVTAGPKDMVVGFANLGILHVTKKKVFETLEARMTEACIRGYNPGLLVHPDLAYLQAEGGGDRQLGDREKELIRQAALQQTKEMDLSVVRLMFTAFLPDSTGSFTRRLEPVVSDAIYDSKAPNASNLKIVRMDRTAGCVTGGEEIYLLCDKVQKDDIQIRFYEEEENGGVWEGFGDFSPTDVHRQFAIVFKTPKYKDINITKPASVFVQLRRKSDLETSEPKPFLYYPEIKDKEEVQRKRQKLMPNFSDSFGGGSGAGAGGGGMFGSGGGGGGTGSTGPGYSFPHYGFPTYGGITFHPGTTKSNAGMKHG
NF-kB p65 (RelA) homodimer, sequence (Q04206 whole entry): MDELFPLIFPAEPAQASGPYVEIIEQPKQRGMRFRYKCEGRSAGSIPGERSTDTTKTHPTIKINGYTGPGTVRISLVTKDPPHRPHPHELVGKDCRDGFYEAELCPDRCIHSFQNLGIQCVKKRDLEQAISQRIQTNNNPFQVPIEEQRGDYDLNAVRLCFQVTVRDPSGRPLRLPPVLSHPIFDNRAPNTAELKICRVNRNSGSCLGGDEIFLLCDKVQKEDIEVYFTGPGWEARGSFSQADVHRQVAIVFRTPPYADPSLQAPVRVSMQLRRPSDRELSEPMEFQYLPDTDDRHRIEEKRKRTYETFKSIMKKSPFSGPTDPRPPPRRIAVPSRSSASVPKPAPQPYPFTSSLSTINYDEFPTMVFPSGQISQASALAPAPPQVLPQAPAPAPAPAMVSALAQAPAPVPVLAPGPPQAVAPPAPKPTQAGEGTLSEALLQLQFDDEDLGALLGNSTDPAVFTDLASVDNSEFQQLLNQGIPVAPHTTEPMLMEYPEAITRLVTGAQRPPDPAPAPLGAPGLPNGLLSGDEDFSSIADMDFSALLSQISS

Usually Kd stands for the constant that tells how readily two partners part at equilibrium. Read a low Kd as higher affinity. Turning to IgkB promoter element 22-mer, the Kd (in the data set with NF-kB p50 homodimer; in data set [1]) was 4 nM in each case.

Source of the values: patent publication US20060121489.
